# IntAct's records for PubMed 22493223
# B1: Mitotic spindle assembly checkpoint protein MAD1 (Homo sapiens), Q9Y6D9 (parent)
# chain: MEDLGENTMVLSTLRSLNNFISQRVEGGSGLDISTSAPGSLQMQYQQSMQLEERAEQIRSKSHLIQVEREKMQMELSHKRARVELERAASTSARNYEREVDRNQELLTRIRQLQEREAGAEEKMQEQLERNRQCQQNLDAASKRLREKEDSLAQAGETINALKGRISELQWSVMDQEMRVKRLESEKQELQEQLDLQHKKCQEANQKIQELQASQEARADHEQQIKDLEQKLSLQEQDAAIVKNMKSELVRLPRLERELKQLREESAHLREMRETNGLLQEELEGLQRKLGRQEKMQETLVGLELENERLLAKLQSWERLDQTMGLSIRTPEDLSRFVVELQQRELALKDKNSAVTSSARGLEKARQQLQEELRQVSGQLLEERKKRETHEALARRLQKRVLLLTKERDGMRAILGSYDSELTPAEYSPQLTRRMREAEDMVQKVHSHSAEMEAQLSQALEELGGQKQRADMLEMELKMLKSQSSSAEQSFLFSREEADTLRLKVEELEGERSRLEEEKRMLEAQLERRALQGDYDQSRTKVLHMSLNPTSVARQRLREDHSQLQAECERLRGLLRAMERGGTVPADLEAAAASLPSSKEVAELKKQVESAELKNQRLKEVFQTKIQEFRKACYTLTGYQIDITTENQYRLTSLYAEHPGDCLIFKATSPSGSKMQLLETEFSHTVGELIEVHLRRQDSIPAFLSSLTLELFSRQTVA
# Variants of: B1
# Details: with md2l1_human MAD2L1, Q13257
# Chain of md2l1_human MAD2L1, Q13257 (Q13257 whole entry): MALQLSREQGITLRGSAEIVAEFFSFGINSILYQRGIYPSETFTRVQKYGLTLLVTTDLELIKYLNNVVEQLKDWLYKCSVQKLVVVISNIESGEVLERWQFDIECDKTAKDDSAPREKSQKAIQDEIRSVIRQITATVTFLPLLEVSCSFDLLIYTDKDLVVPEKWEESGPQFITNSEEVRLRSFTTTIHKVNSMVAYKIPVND
row,effect of a mutation on the interaction,Variant
1,disrupting interaction strength,K541A;V542A;L543A;H544A;M545A
